Source: patent publication US20170247475A1 (Boehringer Ingelheim, published 2017)
Substitutions are numbered along the chain they refer to.

B1: VEGFBII11C11 (VHH)
VHH: EVQLVESGGGLVQAGGSLMLSCAASGRALSSYAIGWFRQAPGREREFVARISWSGANTYYADSVKGRFTISRGNAKNTVYLQMNSLKPEDTAAYYCAAQTTSKYDNYDARAYGYWGQGTQVTVSS
B2: VEGFBII08F07 (VHH)
VHH: EVQLVESGGGLVQAGGSLRLSCAVSGSTFGLYAMGWFRQAPGREREFLSAITWSAGDTQYADSVKGRFTISRDNARNTVNLQMNGLKPEDTAVYYCAGRQWGGTYYYHGSYAYWGQGTQVTVSS
B3: VEGFBII12G04 (VHH)
VHH: B2 VHH with A14S, G16D, S27N, L48V, Y113W
B4: VEGFBII39H11 (VHH)
VHH: EVQLVESGGGLVQAGGSLRLSCAASGRTFSAYDMGWFRQAPGKEREFVAVISWTGGMTYYADSVKGRFTISRDKAKNTVSLQMNSLKPEDTAVYYCAVDRRRTYSRWRYYTGVNEYEYWGQGTQVTVSS
B5: VEGFBII36C08 (VHH)
VHH: B4 VHH with G55N, G56S, K74N, S80Y, Y109F, E115D, E117D
B6: VEGFBII42F10 (VHH)
VHH: B4 VHH with T54S, Y59D, D73E, K74N, V79Q, S80F, D99G, T103A, E117D
B7: VEGFBII37F09 (VHH)
VHH: B4 VHH with A14T, T54S, K65Q, K74N, N77S, S80Y, L86P, T103A, E115D, Y118F
B8: VEGFBII38A06 (VHH)
VHH: B4 VHH with T54S, K74N, S80Y, T103L, E115D, E117D
B9: VEGFBII41D11 (VHH)
VHH: B4 VHH with V5M
B10: VEGFBII41B06 (VHH)
VHH: B4 VHH with G56D, V98A
B11: VEGFBII12B01 (VHH)
VHH: EVQLVESGGGLVQPGGSLRLACAASGFTLSSSWMYWVRQAPGKGLEWVSRISPGGLFTYYVDSVKGRFSVSTDNANNTLYLQMNSLKPEDTALYSCAKGGAPNYTPRGRGTQVTVSS
B12: VEGFBII16F11 (VHH)
VHH: EVQLVESGGGLVQAGGSLRLSCAASGRTSSGYDMGWFRQAPGKEREFVTAITWSGGSTYSPDSVKGRFTISRDNAKNTVYLQMNNLTPEDTAVYYCASGRIWRSRDYDSEKYYDIWGHGTQVTVSS
B13: VEGFBII09F05 (VHH)
VHH: EVQLVESGGGLVQAGGSLRLSCAASGRTFSTDDVGWFRQAPGKEREFVAVIRWSTGGTYTSDSVKGRFTLSRDNAKNTMYLQMNSLKPEDTAVYYCAARSRPLGAGAWYTGETRYNYWGQGTQVTVSS
B14: VEGFBII09A12 (VHH)
VHH: B13 VHH with K65A, N116D, Y117S
B15: VEGFBII16C03 (VHH)
VHH: B13 VHH with G8E, T113N, R114Y
B16: VEGFBII86C11 (VHH)
VHH: EVQLVESGGGLVQAGDSLRLSCTASGRTFNSYAMGWFRQAPGKERESVAHINRSGSSTYYADSVKGRFTISRDNAKNTVYLQLNSLKPEDTAVYYCAAGRYYSSDGVPSASFNYWGQGTQVTVSS
B17: VEGFBII04B08 (VHH)
VHH: EVQLVESGGGLVQPGGSLRLSCAASGSAVGDITVAWYRQAPGIQRQLVATITPSGYTYYWDFVKGRFTISRDNSKNIVYLQMNSLKPEDTAAYYCNTQFYWGQGTQVTVSS
B18: VEGFBII08E06 (VHH)
VHH: EVQLVESGGGLVQPGGSLRLSCAASGSIVRSDVMGWYRQAPGKQRELVAFIRSLGSTYYAGSVKGRFTISRDDAANTVYLQMNNLKPEDTAVYYCNARFSGESYWGQGTPVTVSS
B19: VEGFBII12C04 (VHH)
VHH: B18 VHH with D73N
B20: VEGFBII12A07 (VHH)
VHH: EVQLVESGGGLVQAGGSLRLSCSVTGRTFNKYVMGWFRQAPGNDREFVAAITSRDGPTYYADSVKGRFTISGDNTKNKIFLQMNSLMPEDTAVYYCAIDEDLYHYSSYHFTRVDLYHYWGQGTQVTVSS
B21: VEGFBII08E07 (VHH)
VHH: EVQLVESGGGLAQAGGSLRLSCTTSGLTFSSYYMGWFRQAPGKEREFVATISWNKISTIYTDSVKGRFTVSRDNNKNTVYLQMNSLKPEDTAVYYCAADASRPTLRIPQYWGQGTQVTVSS
B22: VEGFBII11G09 (VHH)
VHH: EVQLVESGGGLVQAGGSLRLSCAASTSIYSITVMAWFRQAPGKEREFVAAITWSAPTTYSADSVKGRFTISRDNAKNTVYLQMNSLKPEDSAIYYCAADRFKGRSIVTRSDYRYWGQGTQVTVSS
B23: VEGFBII11F10 (VHH)
VHH: B22 VHH with T57S, T58S, S60Y, M83V
B24: VEGFBII07A06 (VHH)
VHH: B22 VHH with A24V, T32S, E46A, S60Y, M83T
B25: VEGFBII07A03 (VHH)
VHH: B22 VHH with R45S, T57S, T58S, S60Y, R113K
B26: VEGFBII09D05 (VHH)
VHH: EVQLVESGGGLVQPGDSLRLSCAASGLSFSRYGMGWFRQAPGKEREFVIAISEYDNVYTADSVRGRFTISRDNSKSTVYLQMNSLKSEDTAVYYCAASPTILLSTDEWYKYWGRGTQVTVSS
B27: VEGFBII12E10 (VHH)
VHH: EVQLVESGGGLAQAGGSLRLSCTASGRTFNNYVMGWFRQAPGNEREFVAAITSTNGPTYYADSVKGRFTISGDNTKNKVFLQMDSLRPEDTAVYYCAIDEDLYHYSSYHYTRVALYHYWGQGTQVTVSS
B28: VEGFBII09A09 (VHH)
VHH: EVQLVESGGGLVQPGGSLRLSCVASGIRFMSMAWYRQAPGKHRELVARISSEGTTAYVDSVKGRFTISRDNSKNTVYLQMNSLKAEDTAVYYCNTFSSRPNPWGAGTTVTVSS

The binders below were run against T1, recombinant human VEGF165 (human, UniProt P15692-4 27-191) (assay: ELISA screen, periplasmic extract on coated hVEGF165).
T1 construct: also called hVEGF165; rhVEGF165
From the text: Wells are blocked with a casein solution (1%). After addition of typically a 10-fold dilution of the periplasmic extracts, VHH binding is detected using a mouse anti-myc (Roche) and an anti-mouse-HRP conjugate (DAKO). Clones showing ELISA signals of >3-fold above background are considered as VEGF binding VHHs.

T1 sequence (P15692 other isoform, or with tags, fused parts or gaps limits assumed): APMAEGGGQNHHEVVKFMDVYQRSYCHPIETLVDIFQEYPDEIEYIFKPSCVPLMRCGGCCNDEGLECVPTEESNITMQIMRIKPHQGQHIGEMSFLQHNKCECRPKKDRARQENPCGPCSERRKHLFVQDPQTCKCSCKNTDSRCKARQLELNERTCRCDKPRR

Binding result, binds:
B1
B2
B3
B4
B5
B6
B7
B8
B9
B10
B11
B12
B13
B14
B15
B16
B17
B18
B19
B20
B21
B22
B23
B24
B25
B26
B27
B28
